Data taken from PMC13397619.

B1: NLV2 TCR alpha chain (CDR3α only) (parent)
chain: AGPMKTSYDKVI
partner: NLVGMVATV

Variants of: B1
Experiment: T-Switch: Jurkat TCRβ−/− cells expressing a CDR3 saturation-mutagenesis library, stained with two peptide-HLA-A*02:01 tetramers (original and novel peptide) plus anti-CD3, FACS-sorted into four gates, gDNA sequenced
Details: with HLA-A*02:01 with peptide … (NLV 2-2, the original bait), tetramers 1 µg/mL, 30 min on ice, DP and SW gates expanded about 10 days between rounds ('two to three rounds of selection' in the Methods), gate SP: higher = more of the variant in the gate that binds the original peptide and not the novel one = retained original binding. Fold enrichment of the CDR3 variant in one FACS gate of a two-tetra, unresolved parent, parent is a CDR3 fragment, scale: fold enrichment, numbering: sequential-on-construct, sequence …
[…] (CDR3 as printed); I12L derived by comparing it with the table's wild-type CDR3 AGPMKTSYDKVI was tested, and the enrichment was 0.259.
[…] (CDR3 as printed); A1N derived by comparing it with the table's wild-type CDR3 AGPMKTSYDKVI was tested, and the enrichment was 0.476.
In the case of […] (CDR3 as printed); I12G derived by comparing it with the table's wild-type CDR3 AGPMKTSYDKVI, the enrichment is reported as 0.
Variant […] (CDR3 as printed); K5H derived by comparing it with the table's wild-type CDR3 AGPMKTSYDKVI has an enrichment of 4.24.
With […] (CDR3 as printed); K5E derived by comparing it with the table's wild-type CDR3 AGPMKTSYDKVI the enrichment was 21.3.
Work on […] (CDR3 as printed); Y8K derived by comparing it with the table's wild-type CDR3 AGPMKTSYDKVI yielded an enrichment of 0.
Work on […] (CDR3 as printed); K10M derived by comparing it with the table's wild-type CDR3 AGPMKTSYDKVI yielded an enrichment of 0.
For […] (CDR3 as printed); V11I derived by comparing it with the table's wild-type CDR3 AGPMKTSYDKVI, the enrichment was 5.
In the case of […] (CDR3 as printed); P3K derived by comparing it with the table's wild-type CDR3 AGPMKTSYDKVI, the enrichment is reported as 0.
Variant […] (CDR3 as printed); G2V derived by comparing it with the table's wild-type CDR3 AGPMKTSYDKVI has an enrichment of 0.
[…] (CDR3 as printed); S7T derived by comparing it with the table's wild-type CDR3 AGPMKTSYDKVI gave an enrichment of 0.
Variant […] (CDR3 as printed); A1R derived by comparing it with the table's wild-type CDR3 AGPMKTSYDKVI has an enrichment of 0.
Variant […] (CDR3 as printed); S7E derived by comparing it with the table's wild-type CDR3 AGPMKTSYDKVI has an enrichment of 0.
For […] (CDR3 as printed); V11H derived by comparing it with the table's wild-type CDR3 AGPMKTSYDKVI, the enrichment was 0.
With […] (CDR3 as printed); D9M derived by comparing it with the table's wild-type CDR3 AGPMKTSYDKVI the enrichment was 0.433.
[…] (CDR3 as printed); K10Y derived by comparing it with the table's wild-type CDR3 AGPMKTSYDKVI showed an enrichment of 4.15.
Work on […] (CDR3 as printed); I12F derived by comparing it with the table's wild-type CDR3 AGPMKTSYDKVI yielded an enrichment of 2.21.
[…] (CDR3 as printed); A1P derived by comparing it with the table's wild-type CDR3 AGPMKTSYDKVI was tested, and the enrichment was 2.46.
[…] (CDR3 as printed); D9W derived by comparing it with the table's wild-type CDR3 AGPMKTSYDKVI was tested, and the enrichment was 0.
Work on […] (CDR3 as printed); Y8I derived by comparing it with the table's wild-type CDR3 AGPMKTSYDKVI yielded an enrichment of 0.
For […] (CDR3 as printed); M4D derived by comparing it with the table's wild-type CDR3 AGPMKTSYDKVI, the enrichment was 0.
With […] (CDR3 as printed); Y8Q derived by comparing it with the table's wild-type CDR3 AGPMKTSYDKVI the enrichment was 0.
For […] (CDR3 as printed); A1Q derived by comparing it with the table's wild-type CDR3 AGPMKTSYDKVI, the enrichment was 0.
[…] (CDR3 as printed); M4E derived by comparing it with the table's wild-type CDR3 AGPMKTSYDKVI was tested, and the enrichment was 27.
[…] (CDR3 as printed); K10E derived by comparing it with the table's wild-type CDR3 AGPMKTSYDKVI showed an enrichment of 0.
Work on […] (CDR3 as printed); K10W derived by comparing it with the table's wild-type CDR3 AGPMKTSYDKVI yielded an enrichment of 0.
[…] (CDR3 as printed); S7V derived by comparing it with the table's wild-type CDR3 AGPMKTSYDKVI gave an enrichment of 0.
Variant […] (CDR3 as printed); D9S derived by comparing it with the table's wild-type CDR3 AGPMKTSYDKVI has an enrichment of 0.
[…] (CDR3 as printed); V11W derived by comparing it with the table's wild-type CDR3 AGPMKTSYDKVI was tested, and the enrichment was 0.
[…] (CDR3 as printed); K10G derived by comparing it with the table's wild-type CDR3 AGPMKTSYDKVI showed an enrichment of 0.
Work on […] (CDR3 as printed); D9H derived by comparing it with the table's wild-type CDR3 AGPMKTSYDKVI yielded an enrichment of 0.283.
For […] (CDR3 as printed); T6F derived by comparing it with the table's wild-type CDR3 AGPMKTSYDKVI, the enrichment was 0.
[…] (CDR3 as printed); P3T derived by comparing it with the table's wild-type CDR3 AGPMKTSYDKVI gave an enrichment of 0.
[…] (CDR3 as printed); A1L derived by comparing it with the table's wild-type CDR3 AGPMKTSYDKVI showed an enrichment of 0.
Variant […] (CDR3 as printed); T6W derived by comparing it with the table's wild-type CDR3 AGPMKTSYDKVI has an enrichment of 0.
Variant […] (CDR3 as printed); K10A derived by comparing it with the table's wild-type CDR3 AGPMKTSYDKVI has an enrichment of 0.
[…] (CDR3 as printed); V11C derived by comparing it with the table's wild-type CDR3 AGPMKTSYDKVI was tested, and the enrichment was 0.
Work on […] (CDR3 as printed); T6Q derived by comparing it with the table's wild-type CDR3 AGPMKTSYDKVI yielded an enrichment of 0.
For […] (CDR3 as printed); G2F derived by comparing it with the table's wild-type CDR3 AGPMKTSYDKVI, the enrichment was 0.
[…] (CDR3 as printed); T6Y derived by comparing it with the table's wild-type CDR3 AGPMKTSYDKVI showed an enrichment of 0.
For […] (CDR3 as printed); Y8D derived by comparing it with the table's wild-type CDR3 AGPMKTSYDKVI, the enrichment was 0.
[…] (CDR3 as printed); M4P derived by comparing it with the table's wild-type CDR3 AGPMKTSYDKVI showed an enrichment of 0.
Work on […] (CDR3 as printed); Y8P derived by comparing it with the table's wild-type CDR3 AGPMKTSYDKVI yielded an enrichment of 0.
In the case of […] (CDR3 as printed); I12S derived by comparing it with the table's wild-type CDR3 AGPMKTSYDKVI, the enrichment is reported as 0.
For […] (CDR3 as printed); M4F derived by comparing it with the table's wild-type CDR3 AGPMKTSYDKVI, the enrichment was 0.
For […] (CDR3 as printed); A1M derived by comparing it with the table's wild-type CDR3 AGPMKTSYDKVI, the enrichment was 0.103.
[…] (CDR3 as printed); K10F derived by comparing it with the table's wild-type CDR3 AGPMKTSYDKVI was tested, and the enrichment was 0.
For […] (CDR3 as printed); S7G derived by comparing it with the table's wild-type CDR3 AGPMKTSYDKVI, the enrichment was 0.
Work on […] (CDR3 as printed); G2L derived by comparing it with the table's wild-type CDR3 AGPMKTSYDKVI yielded an enrichment of 0.
With […] (CDR3 as printed); D9R derived by comparing it with the table's wild-type CDR3 AGPMKTSYDKVI the enrichment was 0.
Work on […] (CDR3 as printed); T6H derived by comparing it with the table's wild-type CDR3 AGPMKTSYDKVI yielded an enrichment of 0.
[…] (CDR3 as printed); P3Y derived by comparing it with the table's wild-type CDR3 AGPMKTSYDKVI showed an enrichment of 0.
Variant […] (CDR3 as printed); K5C derived by comparing it with the table's wild-type CDR3 AGPMKTSYDKVI has an enrichment of 0.
[…] (CDR3 as printed); K5N derived by comparing it with the table's wild-type CDR3 AGPMKTSYDKVI gave an enrichment of 0.
Variant […] (CDR3 as printed); P3C derived by comparing it with the table's wild-type CDR3 AGPMKTSYDKVI has an enrichment of 0.
[…] (CDR3 as printed); I12A derived by comparing it with the table's wild-type CDR3 AGPMKTSYDKVI was tested, and the enrichment was 2.32.
[…] (CDR3 as printed); V11S derived by comparing it with the table's wild-type CDR3 AGPMKTSYDKVI showed an enrichment of 1.91.
In the case of […] (CDR3 as printed); P3W derived by comparing it with the table's wild-type CDR3 AGPMKTSYDKVI, the enrichment is reported as 0.
With […] (CDR3 as printed); D9K derived by comparing it with the table's wild-type CDR3 AGPMKTSYDKVI the enrichment was 0.
Variant […] (CDR3 as printed); M4T derived by comparing it with the table's wild-type CDR3 AGPMKTSYDKVI has an enrichment of 12.4.
For […] (CDR3 as printed); I12Y derived by comparing it with the table's wild-type CDR3 AGPMKTSYDKVI, the enrichment was 0.
[…] (CDR3 as printed); T6R derived by comparing it with the table's wild-type CDR3 AGPMKTSYDKVI showed an enrichment of 0.
With […] (CDR3 as printed); T6P derived by comparing it with the table's wild-type CDR3 AGPMKTSYDKVI the enrichment was 9.39.
Variant […] (CDR3 as printed); G2D derived by comparing it with the table's wild-type CDR3 AGPMKTSYDKVI has an enrichment of 0.
For […] (CDR3 as printed); S7Q derived by comparing it with the table's wild-type CDR3 AGPMKTSYDKVI, the enrichment was 0.
[…] (CDR3 as printed); T6M derived by comparing it with the table's wild-type CDR3 AGPMKTSYDKVI gave an enrichment of 0.
Variant […] (CDR3 as printed); K5S derived by comparing it with the table's wild-type CDR3 AGPMKTSYDKVI has an enrichment of 4.22.
[…] (CDR3 as printed); V11A derived by comparing it with the table's wild-type CDR3 AGPMKTSYDKVI was tested, and the enrichment was 1.13.
[…] (CDR3 as printed); Y8M derived by comparing it with the table's wild-type CDR3 AGPMKTSYDKVI was tested, and the enrichment was 0.
[…] (CDR3 as printed); I12P derived by comparing it with the table's wild-type CDR3 AGPMKTSYDKVI showed an enrichment of 0.
With […] (CDR3 as printed); S7N derived by comparing it with the table's wild-type CDR3 AGPMKTSYDKVI the enrichment was 0.
Work on […] (CDR3 as printed); S7C derived by comparing it with the table's wild-type CDR3 AGPMKTSYDKVI yielded an enrichment of 0.
Work on […] (CDR3 as printed); T6E derived by comparing it with the table's wild-type CDR3 AGPMKTSYDKVI yielded an enrichment of 0.
With […] (CDR3 as printed); Y8H derived by comparing it with the table's wild-type CDR3 AGPMKTSYDKVI the enrichment was 0.
[…] (CDR3 as printed); Y8V derived by comparing it with the table's wild-type CDR3 AGPMKTSYDKVI gave an enrichment of 0.
In the case of […] (CDR3 as printed); K10Q derived by comparing it with the table's wild-type CDR3 AGPMKTSYDKVI, the enrichment is reported as 1.98.
For […] (CDR3 as printed); V11N derived by comparing it with the table's wild-type CDR3 AGPMKTSYDKVI, the enrichment was 0.
[…] (CDR3 as printed); T6G derived by comparing it with the table's wild-type CDR3 AGPMKTSYDKVI showed an enrichment of 0.
Variant […] (CDR3 as printed); P3V derived by comparing it with the table's wild-type CDR3 AGPMKTSYDKVI has an enrichment of 0.124.
For […] (CDR3 as printed); I12M derived by comparing it with the table's wild-type CDR3 AGPMKTSYDKVI, the enrichment was 0.
With […] (CDR3 as printed); M4S derived by comparing it with the table's wild-type CDR3 AGPMKTSYDKVI the enrichment was 7.99.
With […] (CDR3 as printed); G2H derived by comparing it with the table's wild-type CDR3 AGPMKTSYDKVI the enrichment was 0.
[…] (CDR3 as printed); A1T derived by comparing it with the table's wild-type CDR3 AGPMKTSYDKVI was tested, and the enrichment was 0.262.
